According to patent US20190322730A1 (NGM BIOPHARMACEUTICALS, published 2019):

Key:
[1] = biological target: T1, cynomolgus monkey complement component C3 (cynomolgus monkey, UniProt P01024 24-1663 (human entry)); experiment: SPR (Biacore), antibody captured by anti-Fc, C3 injected 0.62-40 nM, 37 C
T1 construct: In the hemolysis assays cyno serum was the source of C3; also called cyno C3
Description: (§1) The binding affinities of exemplary anti-C3 antibodies to human C3 and cyno C3 were measured using a Biacore system (GE Healthcare LifeSciences). Briefly, anti-Fc antibody (Sigma-Aldrich) was immobilized on all four flow cells of a CM5 chip using amine coupling reagents (GE Healthcare LifeSciences). Antibodies were captured on flow cells 2, 3, and 4 using flow cell 1 as a reference. Concentrations ranging from 0.62-40 nM of human C3 or cyno C3 were injected at a flow rate of 50 μL/min at 37° C. Kinetic data were collected over time and fit using the simultaneous global fit equation to yield affinity constants (KD values) for each antibody.

[2] = biological target: T2, human complement component C3 (human, UniProt P01024 23-667; P01024 672-1663); experiment: as above
T2 construct: also called human C3
T2 sequence (P01024 23-667, chain 1 of 2): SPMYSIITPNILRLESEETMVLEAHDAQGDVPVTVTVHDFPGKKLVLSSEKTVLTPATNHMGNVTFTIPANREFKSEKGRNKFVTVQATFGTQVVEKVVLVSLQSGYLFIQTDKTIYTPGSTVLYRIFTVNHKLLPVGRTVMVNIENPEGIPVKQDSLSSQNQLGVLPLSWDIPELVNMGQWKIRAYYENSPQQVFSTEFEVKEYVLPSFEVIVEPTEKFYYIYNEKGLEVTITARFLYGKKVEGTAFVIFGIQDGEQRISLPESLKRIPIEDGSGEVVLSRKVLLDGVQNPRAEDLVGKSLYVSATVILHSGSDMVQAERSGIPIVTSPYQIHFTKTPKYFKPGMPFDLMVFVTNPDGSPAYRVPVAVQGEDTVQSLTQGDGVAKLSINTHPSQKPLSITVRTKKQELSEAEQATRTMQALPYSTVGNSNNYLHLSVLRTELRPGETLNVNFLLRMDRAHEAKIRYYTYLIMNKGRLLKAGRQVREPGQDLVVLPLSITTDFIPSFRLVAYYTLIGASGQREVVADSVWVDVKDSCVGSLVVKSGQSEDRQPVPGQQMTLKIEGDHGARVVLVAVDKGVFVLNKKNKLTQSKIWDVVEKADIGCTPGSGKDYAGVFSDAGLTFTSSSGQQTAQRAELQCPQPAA
T2 sequence (P01024 672-1663, chain 2 of 2): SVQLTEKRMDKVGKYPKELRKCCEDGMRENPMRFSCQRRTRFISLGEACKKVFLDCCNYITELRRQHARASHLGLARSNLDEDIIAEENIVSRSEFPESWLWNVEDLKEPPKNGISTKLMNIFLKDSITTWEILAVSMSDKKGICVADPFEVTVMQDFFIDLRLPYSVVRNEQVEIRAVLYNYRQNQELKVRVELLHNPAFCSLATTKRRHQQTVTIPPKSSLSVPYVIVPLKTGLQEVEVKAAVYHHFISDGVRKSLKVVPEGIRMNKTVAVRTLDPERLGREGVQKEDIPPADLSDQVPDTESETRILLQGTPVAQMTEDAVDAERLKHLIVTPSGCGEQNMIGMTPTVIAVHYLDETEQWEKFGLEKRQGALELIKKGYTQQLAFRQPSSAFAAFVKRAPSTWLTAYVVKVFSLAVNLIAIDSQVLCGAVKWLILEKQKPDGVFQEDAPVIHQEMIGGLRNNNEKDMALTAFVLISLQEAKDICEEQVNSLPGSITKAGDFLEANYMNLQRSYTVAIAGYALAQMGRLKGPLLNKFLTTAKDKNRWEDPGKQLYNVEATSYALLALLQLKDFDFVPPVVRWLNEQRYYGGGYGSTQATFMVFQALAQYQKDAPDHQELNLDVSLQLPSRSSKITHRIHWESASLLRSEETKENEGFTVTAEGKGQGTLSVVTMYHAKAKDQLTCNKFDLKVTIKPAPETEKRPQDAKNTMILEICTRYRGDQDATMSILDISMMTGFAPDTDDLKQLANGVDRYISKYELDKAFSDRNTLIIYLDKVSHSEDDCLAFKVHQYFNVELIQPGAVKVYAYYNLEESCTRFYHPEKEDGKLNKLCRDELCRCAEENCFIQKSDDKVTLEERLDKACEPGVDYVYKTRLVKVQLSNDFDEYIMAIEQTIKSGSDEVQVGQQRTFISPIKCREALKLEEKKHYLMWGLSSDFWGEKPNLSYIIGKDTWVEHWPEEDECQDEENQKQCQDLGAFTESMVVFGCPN
Description: as §1

[3] = biological target: T1, cynomolgus monkey complement component …; experiment: cell-based or functional assay
[4] = biological target: T2, human complement component C3; experiment: cell-based or functional assay
[5] = biological target: T2, human complement component C3; experiment: SPR (Biacore)
[6] = biological target: T2, human complement component C3; experiment: cell-based or functional assay; remark: listed apart in the source
[7] = biological target: T1, cynomolgus monkey complement component …; experiment: SPR (Biacore), 37 C
Description: as §1

[8] = biological target: T2, human complement component C3; experiment: SPR (Biacore), 37 C
Description: as §1

C3a [9] = biological target: T3, C3a (human, UniProt P01024 672-748); experiment: binding screen of Example 5, relative to control mIgG2
T3 sequence (P01024 672-748 limits assumed): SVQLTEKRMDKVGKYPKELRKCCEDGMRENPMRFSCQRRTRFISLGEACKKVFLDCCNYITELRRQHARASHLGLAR

C3d [10] = biological target: T4, C3d (UniProt P01024 1002-1303, limits assumed); experiment: as above
T4 construct: domain: C3d
T4 sequence (P01024 1002-1303 limits assumed): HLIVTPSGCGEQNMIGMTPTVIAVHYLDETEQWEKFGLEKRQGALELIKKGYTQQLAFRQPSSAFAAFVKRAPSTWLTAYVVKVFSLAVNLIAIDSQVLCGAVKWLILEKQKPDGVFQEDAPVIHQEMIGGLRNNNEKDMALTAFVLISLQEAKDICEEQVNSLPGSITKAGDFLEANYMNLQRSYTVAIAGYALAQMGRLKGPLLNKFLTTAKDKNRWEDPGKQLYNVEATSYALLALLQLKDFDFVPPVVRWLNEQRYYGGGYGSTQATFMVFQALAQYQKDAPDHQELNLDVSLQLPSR

Factor Bb [11] = biological target: T5, Factor Bb (UniProt P00751 260-764); experiment: as above
T5 construct: domain: Factor Bb
T5 sequence (P00751 260-764 limits assumed): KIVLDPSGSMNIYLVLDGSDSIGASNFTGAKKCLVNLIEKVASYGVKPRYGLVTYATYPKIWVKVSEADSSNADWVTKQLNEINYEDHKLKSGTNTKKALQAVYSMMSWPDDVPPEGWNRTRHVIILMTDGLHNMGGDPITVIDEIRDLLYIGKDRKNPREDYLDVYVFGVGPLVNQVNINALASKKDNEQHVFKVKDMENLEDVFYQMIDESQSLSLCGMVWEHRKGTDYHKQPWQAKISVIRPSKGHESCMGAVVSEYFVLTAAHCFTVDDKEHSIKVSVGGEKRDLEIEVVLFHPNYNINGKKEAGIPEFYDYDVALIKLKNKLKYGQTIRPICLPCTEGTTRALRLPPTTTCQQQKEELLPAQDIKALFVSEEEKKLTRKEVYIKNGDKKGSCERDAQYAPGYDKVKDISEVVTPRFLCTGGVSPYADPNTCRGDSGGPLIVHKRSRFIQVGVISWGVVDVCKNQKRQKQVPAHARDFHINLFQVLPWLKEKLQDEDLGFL

C3a [12] = biological target: T3, C3a; experiment: binding screen of Example 5; method and unit not stated
C3d [13] = biological target: T4, C3d; experiment: as above
Factor Bb [14] = biological target: T5, Factor Bb; experiment: as above
[15] = biological target: T2, human complement component C3; experiment: as above
[16] = biological target: T2, human complement component C3; experiment: SPR (Biacore); Intact antibody
[17] = biological target: T2, human complement component C3; experiment: cell-based or functional assay; remark: listed apart in the source
[18] = biological target: T2, human complement component C3; experiment: SPR (Biacore), antibody captured by anti-Fc, C3 injected, 37 C
Description: as §1
(§2) A Biacore system was used to assess the binding affinities of the different molecules to human C3. […] Human C3 (concentration range 12-100 nM) was injected at a flow rate of 50 μL/min.

[19] = biological target: T2, human complement component C3; experiment: SPR (Biacore); remark: listed apart in the source
Description: as §1

[20] = biological target: T2, human complement component C3; experiment: cell-based or functional assay; remark: listed apart in the source
[21] = biological target: T1, cynomolgus monkey complement component …; experiment: cell-based or functional assay; remark: listed apart in the source
[22] = biological target: T2, human complement component C3; experiment: cell-based or functional assay; remark: listed apart in the source
[23] = biological target: T2, human complement component C3; experiment: SPR (Biacore), antibody captured by anti-Fc, C3 injected, 25 C; 25° C.
Description: as §1, §2

C3b = C3b (human, UniProt P01024 23-667; P01024 749-1663); experiment: binding screen of Example 5; method and unit not stated

T1 sequence (P01024 other isoform, or with tags, fused parts or gaps): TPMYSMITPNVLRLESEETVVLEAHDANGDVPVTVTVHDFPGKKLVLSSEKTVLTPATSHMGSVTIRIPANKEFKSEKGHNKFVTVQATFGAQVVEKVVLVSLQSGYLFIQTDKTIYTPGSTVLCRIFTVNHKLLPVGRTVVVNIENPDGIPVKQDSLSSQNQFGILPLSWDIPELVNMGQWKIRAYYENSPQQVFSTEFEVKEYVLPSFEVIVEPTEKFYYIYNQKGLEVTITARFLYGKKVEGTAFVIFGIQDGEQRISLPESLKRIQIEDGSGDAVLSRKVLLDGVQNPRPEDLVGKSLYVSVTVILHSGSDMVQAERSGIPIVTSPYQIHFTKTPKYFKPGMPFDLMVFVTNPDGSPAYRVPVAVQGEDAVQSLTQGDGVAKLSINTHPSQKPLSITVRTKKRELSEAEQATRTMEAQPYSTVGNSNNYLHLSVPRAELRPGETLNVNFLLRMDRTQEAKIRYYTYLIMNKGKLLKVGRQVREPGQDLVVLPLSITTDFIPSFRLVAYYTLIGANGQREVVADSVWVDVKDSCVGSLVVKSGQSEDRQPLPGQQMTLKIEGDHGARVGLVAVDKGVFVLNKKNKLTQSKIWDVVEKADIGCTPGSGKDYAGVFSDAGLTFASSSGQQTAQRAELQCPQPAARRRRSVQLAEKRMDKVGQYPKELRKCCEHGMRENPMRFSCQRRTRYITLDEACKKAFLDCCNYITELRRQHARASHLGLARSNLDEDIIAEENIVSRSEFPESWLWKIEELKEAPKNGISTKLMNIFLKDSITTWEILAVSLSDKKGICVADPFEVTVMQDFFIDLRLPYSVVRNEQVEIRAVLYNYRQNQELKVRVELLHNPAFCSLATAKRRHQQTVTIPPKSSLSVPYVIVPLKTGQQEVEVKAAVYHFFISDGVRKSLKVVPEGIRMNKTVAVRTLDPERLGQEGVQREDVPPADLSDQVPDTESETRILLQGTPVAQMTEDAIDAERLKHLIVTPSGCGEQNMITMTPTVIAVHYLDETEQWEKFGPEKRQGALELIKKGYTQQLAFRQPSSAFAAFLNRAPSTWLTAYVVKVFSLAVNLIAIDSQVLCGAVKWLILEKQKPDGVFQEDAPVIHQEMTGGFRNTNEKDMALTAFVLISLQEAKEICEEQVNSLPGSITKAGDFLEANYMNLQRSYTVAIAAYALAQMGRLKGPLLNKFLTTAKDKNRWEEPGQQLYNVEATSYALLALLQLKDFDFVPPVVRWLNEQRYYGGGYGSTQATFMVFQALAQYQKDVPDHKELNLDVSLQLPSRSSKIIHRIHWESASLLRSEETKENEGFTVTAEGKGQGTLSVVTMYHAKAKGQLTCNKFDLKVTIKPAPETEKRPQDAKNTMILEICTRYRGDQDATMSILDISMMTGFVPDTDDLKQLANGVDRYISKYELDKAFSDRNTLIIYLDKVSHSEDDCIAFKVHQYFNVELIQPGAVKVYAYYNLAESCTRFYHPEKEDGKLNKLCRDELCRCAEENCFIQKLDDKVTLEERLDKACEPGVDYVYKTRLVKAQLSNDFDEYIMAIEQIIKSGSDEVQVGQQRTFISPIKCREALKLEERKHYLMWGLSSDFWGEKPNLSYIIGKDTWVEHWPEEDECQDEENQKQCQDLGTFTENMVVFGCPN

B1: antibody 15C12 (antibody, V domains shown)
VH: EIQLQQSGAELEKPGASVKISCKASGYSFTGYNMHWVKQSHGKSLEWIGNINPYYGTTNSNQKFEDKATLTVDKSSSTAYMQLNSLTSEDSAVYYCARGIYYYGTGYPYFDFWGQGTTLTVSS
VL: DIQMTQTTSSLSASLGDRVTISCRASQDINNYLNWYLQKPDGTVKLLIYYTSRLHSGVPSRFSGSGSGTDYSLTISNLEQEDLATYFCQQGITLPWTFGGGTKLEIK
notes: Mouse hybridoma antibody
- Kd [1]: 0.13 nM
- Kd [2]: 0.13 nM
- Hemolytic Assay IC50, Cyno AP [3]: 8.8 nM
- Hemolytic Assay IC50, Human AP [4]: 3.7 nM
- Hemolytic Assay IC50, Human CP [4]: 3.8 nM

B2: Hz38G10 dsscFv (scFv)
scFv: MDIQMTQSPSSLSASVGDRVTITCKASENVDTYVSWYQQKPGKAPKLLIYGASNRYTGVPSRFSGSGSGTDFTFTISSLQPEDIATYHCGQSHSYPLTFGCGTKLEIKGGGGSGGGGSGGGGSQVQLVQSGAEVKKPGASVKVSCKASGYTFTDFYMDWVRQAPGQCLEWMGYIYPHNGGTTYNQQFTGRVTITVDKSASTAYMELSSLRSEDTAVYYCARRGGFDFDYWGQGTLVTVSS
notes: also called Hz38G10 VL-linker-VH dsscFv
- Kd [5]: 0.035 nM
- AP human C3 IC50 (hemolysis) [6]: 19.5 nM
- CP human C3 IC50 (hemolysis) [6]: 15.3 nM

B3: antibody 38G10 (antibody, V domains shown)
VH: EVQLQQSGPELVKPGDSVKMSCKASGYTFTDFYMDWVKQSHGKSLEWIGYIYPHNGGTTYNQNFTGKATLTVDKSSNTAYMELHSLTSEDSAVYYCARRGGFDFDYWGQGTTLTVSS
VL: NIVMTQSPKSMSLSVGERVTLRCKASENVDTYVSWYQQKPEQSPKLLIYGASNRYTGVPDRFTGSGSATEFTLTISSVQAEDLVGYHCGQSHSYPLTFGAGTKLELK
notes: Mouse hybridoma antibody; Parent of Hz38G10; also called parental 38G10 antibody
- Kd [7]: ~0.1 nM
- Kd [8]: ~0.1 nM
- binding result (C3a [9]): no binding
- binding result (C3d [10]): no binding
- binding result (Factor Bb [11]): no binding
- Kd [1]: 0.16 nM
- Kd [2]: 0.19 nM
- Hemolytic Assay IC50, Cyno AP [3]: 3.5 nM
- Hemolytic Assay IC50, Human AP [4]: 1.9 nM
- Hemolytic Assay IC50, Human CP [4]: 1.7 nM
- binding relative to negative control mIgG2 (C3a [12]): 0.02
- binding relative to negative control mIgG2 (C3d [13]): 0
- binding relative to negative control mIgG2 (Factor Bb [14]): 0.01
- binding relative to negative control mIgG2 [15]: 0.53

B4: antibody Hz38G10 (antibody, human IgG1, kappa, V domains shown)
VH: QVQLVQSGAEVKKPGASVKVSCKASGYTFTDFYMDWVRQAPGQRLEWMGYIYPHNGGTTYNQQFTGRVTITVDKSASTAYMELSSLRSEDTAVYYCARRGGFDFDYWGQGTLVTVSS
VL: DIQMTQSPSSLSASVGDRVTITCKASENVDTYVSWYQQKPGKAPKLLIYGASNRYTGVPSRFSGSGSGTDFTFTISSLQPEDIATYHCGQSHSYPLTFGQGTKLEIKR
notes: also called humanized 38G10; Hz38G10 intact antibody
- Kd [16]: 0.027 nM
- Kd [7]: 1.8 nM
- fold more effective than COMP or COMP-PEG in inhibiting the alternative pathway [17]: ~10 fold
- Kd [18]: 0.28 nM
- AP human C3 IC50 (hemolysis) [6]: 5.9 nM
- CP human C3 IC50 (hemolysis) [6]: 4 nM
- Kd [19]: 0.3 nM
- Alternative Pathway IC50 (hemolysis; run with COMP) [20]: 2.5 nM
- Alternative Pathway IC50 (hemolysis; run with COMP-PEG) [20]: 4 nM
- Classical Pathway IC50 (hemolysis; run with COMP) [20]: 2 nM
- Classical Pathway IC50 (hemolysis; run with COMP-PEG) [20]: 4.1 nM
- Alternative Pathway IC50 (hemolysis), Cyno C3 [21]: 4.8 nM
- Classical Pathway IC50 (hemolysis), Cyno C3 [21]: 0.7 nM
- Alternative Pathway IC50 (hemolysis), Human C3 [22]: 3.9 nM
- Classical Pathway IC50 (hemolysis), Human C3 [22]: 5.2 nM
- Kd [23]: < 0.1 nM

B5: antibody 3D8 (antibody, V domains shown)
VH: EIQLQQSGAELVKPGASVKISCKASGYSFTGYNMNWVKQSHGKSLEWIGNINPYYGSTNYNQKFKGKATLTVDKSSTTAYMQLDSLTSEDSAVYYCARGYYGGNYPFAYWGQGTLVTVSA
VL: DIQMTQSPASLSASVGETVTITCRASENIYSYLAWYQQKQGKSPQLLVYNAKTLAEGVPSRFSGSGSGTQFSLKINSLQPEDFGSYYCQHYYGTPYTFGGGSKVEIK
notes: Mouse hybridoma antibody raised against human C3
- Kd [1]: 1.4 nM
- Kd [2]: 1.9 nM
- Hemolytic Assay IC50, Cyno AP [3]: 5.5 nM
- Hemolytic Assay IC50, Human AP [4]: 4.2 nM
- Hemolytic Assay IC50, Human CP [4]: 3.6 nM
- binding relative to negative control mIgG2 (C3b): 0.38
- binding relative to negative control mIgG2 (C3a [12]): -0.01
- binding relative to negative control mIgG2 (C3d [13]): 0.01
- binding relative to negative control mIgG2 (Factor Bb [14]): -0.01
- binding relative to negative control mIgG2 [15]: 0.47
